Here are results for eight compounds from patent US20250360236A1, “PROSTATE SPECIFIC MEMBRANE ANTIGEN (PSMA) LIGANDS” (Deutsches Krebsforschungszentrum Stiftung des öffentlichen …, priority 2022, published 2025).

One data set concerns PSMA+-cells (LNCaP). The data set can be described thus: Cell surface binding and internalization experiments. In kind it is cell-based. The conditions noted are these: 68Ga-labeled compounds, 30 nM, 45 min 37 °C, specific uptake by blockage with 500 μM 2-PMPA, mean ± SD n=3. As for the experimental part:
For internalization experiments, 10^5 cells per well were seeded in poly-L-lysine coated 24-well cell culture plates 24 h before incubation. After washing, the cells were incubated with 30 nM of the radiolabeled compound for 45 min at 37° C. Cellular uptake was terminated by washing 3 times with 1 mL of ice-cold PBS. To remove surface-bound radioactivity, cells were incubated twice with 0.5 mL glycine-HCl in PBS (50 mM, pH=2.8) for 5 min. The cells were washed with 1 mL of ice-cold PBS and lysed using 0.3 N NaOH (0.5 mL). The surface-bound and the internalized fractions were measured in a gamma counter. The cell uptake was calculated as percent of the initially added radioactivity bound to 10^5 cells [% ID/10^5 cells].

The next data set concerns the target T1, PSMA (Homo sapiens, UniProt Q04609).
T1 construct: determined in vitro using PSMA^+-cells (LNCaP); host or cells: LNCaP cells
As to conditions: cited from earlier work.

A further data set in a line: in vivo. The conditions noted are these: male, BALB/c nu/nu, mouse, iv, 0.06 nmol, total radioactivity; for tissue to tissue ratio at 1 h: LNCaP Tumor-to-Organ ratio; for tissue uptake at 1 h: Organ distribution. Also noted: species or system BALB/c nu/nu mice.
The next data set relates to LNCaP xenograft tumors. The conditions noted are these: cited from earlier work.

Read-outs that look alike come from different tables or passages of the source. Where a SMILES comes first, the peptide text is derived from it. [ ]: non-standard residue; d: D form. The star is where a group is joined. ξ: configuration not given here. X1 = CN1/C(=C/C=C/C=C/C2=[N+](CCCCCC(=O)*)c3ccc(S(=O)(=O)O)cc3C2(C)C)C(C)(C)c2cc(S(=O)(=O)[O-])ccc21; X3 = CN1/C(=C/C=C/C=C/C2=[N+](CCCCCC(=O)*)c3ccc(S(=O)(=O)[O-])cc3C2(C)C)C(C)(C)c2cc(S(=O)(=O)O)ccc21; DOTA = O=C(O)CN1CCN(CC(=O)O)CCN(CC(=O)*)CCN(CC(=O)O)CC1; EuK = O=C(O)CC[C@H](NC(=O)N[C@@H](CCCCN*)C(=O)O)C(=O)O; X2 = O=C(O)CC[C@@H](NC(=O)N[C@H](CCCCN*)C(=O)O)C(=O)O; 2Nal = N[C@@H](Cc1ccc2ccccc2c1)C(=O)O; d2Nal = N[C@H](Cc1ccc2ccccc2c1)C(=O)O; Trx = NC[C@H]1CC[C@H](C(=O)O)CC1; ξK = NCCCCC(N)C(=O)O; βAla = NCCC(=O)O; Sar = CNCC(=O)O

T1 sequence (Q04609 whole entry): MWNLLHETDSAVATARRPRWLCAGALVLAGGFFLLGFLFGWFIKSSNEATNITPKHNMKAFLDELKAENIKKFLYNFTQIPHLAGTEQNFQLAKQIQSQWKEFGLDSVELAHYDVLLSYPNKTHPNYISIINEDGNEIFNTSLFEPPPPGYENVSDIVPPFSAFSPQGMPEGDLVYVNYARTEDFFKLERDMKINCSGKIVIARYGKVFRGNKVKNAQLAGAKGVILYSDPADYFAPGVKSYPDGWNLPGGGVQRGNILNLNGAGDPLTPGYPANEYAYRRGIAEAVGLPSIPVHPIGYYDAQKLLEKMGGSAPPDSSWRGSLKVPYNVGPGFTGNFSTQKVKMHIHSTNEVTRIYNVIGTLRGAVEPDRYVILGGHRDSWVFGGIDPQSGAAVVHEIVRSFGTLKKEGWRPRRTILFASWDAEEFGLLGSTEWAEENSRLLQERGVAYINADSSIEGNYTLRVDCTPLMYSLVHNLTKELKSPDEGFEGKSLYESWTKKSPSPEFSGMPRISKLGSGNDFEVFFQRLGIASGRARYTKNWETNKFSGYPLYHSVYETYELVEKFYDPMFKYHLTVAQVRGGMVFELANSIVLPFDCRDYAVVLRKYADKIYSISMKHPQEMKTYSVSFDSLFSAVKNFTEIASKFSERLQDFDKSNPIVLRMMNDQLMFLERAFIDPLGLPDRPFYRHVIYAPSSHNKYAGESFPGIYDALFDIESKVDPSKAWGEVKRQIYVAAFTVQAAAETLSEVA

On to `CN(CC(=O)NC[C@H]1CC[C@H](C(=O)N[C@@H](Cc2ccc3ccccc3c2)C(=O)NCCCC[C@H](NC(=O)N[C@@H](CCC(=O)O)C(=O)O)C(=O)O)CC1)C(=O)CN(C)C(=O)CN(C)C(=O)CN(C)C(=O)CN(C)C(=O)[C@H](CCCCNC(=O)CN1CCN(CC(=O)O)CCN(CC(=O)O)CCN(CC(=O)O)CC1)NC(=O)CN(C)C(=O)CN(C)C(=O)CN(C)C(=O)CN(C)C(=O)CN(C)C(=O)CCNC(=O)CCCCC[N+]1=C(/C=C/C=C/C=C2/N(C)c3ccc(S(=O)(=O)O)cc3C2(C)C)C(C)(C)c2cc(S(=O)(=O)[O-])ccc21` [BP-1, Glu-urea-Lys-2-Nal-Chx-Sar5-Lys(DOTA)-Sar5-bAla-sulfoCy5] ({X3-βAla}-[Sar][Sar][Sar][Sar][Sar]K(DOTA)[Sar][Sar][Sar][Sar][Sar][Trx][2Nal]-EuK), for which, in the data set on PSMA+-cells (LNCaP), the “Specifically cell surface bound” value was found to be 1.3 ± 0.6 % AR/10^5 cells and the Specifically internalized amounted to 1.1 ± 1.0 % AR/10^5 cells.

As to `CN(CC(=O)NC[C@H]1CC[C@H](C(=O)N[C@@H](Cc2ccc3ccccc3c2)C(=O)NCCCC[C@H](NC(=O)N[C@@H](CCC(=O)O)C(=O)O)C(=O)O)CC1)C(=O)CN(C)C(=O)CN(C)C(=O)CN(C)C(=O)CN(C)C(=O)[C@H](CCCCNC(=O)CCCCC[N+]1=C(/C=C/C=C/C=C2/N(C)c3ccc(S(=O)(=O)O)cc3C2(C)C)C(C)(C)c2cc(S(=O)(=O)[O-])ccc21)NC(=O)CN(C)C(=O)CN(C)C(=O)CN(C)C(=O)CN(C)C(=O)CN(C)C(=O)CCNC(=O)CN1CCN(CC(=O)O)CCN(CC(=O)O)CCN(CC(=O)O)CC1` [BP-4, Glu-urea-Lys-2-Nal-Chx-Sar5-Lys(sulfoCy5)-Sar5-bAla-DOTA] ({DOTA-βAla}-[Sar][Sar][Sar][Sar][Sar]K(X3)[Sar][Sar][Sar][Sar][Sar][Trx][2Nal]-EuK), in the data set with PSMA+-cells (LNCaP), the “Specifically cell surface bound” value amounted to 0.8 ± 1.0 % AR/10^5 cells and the Specifically internalized was 0.4 ± 0.7 % AR/10^5 cells.

By Ki is commonly meant a measure of affinity in units of concentration, obtained from inhibition or displacement. `O=C(O)CC[C@H](NC(=O)N[C@@H](CCCCNC(=O)[C@H](Cc1ccc2ccccc2c1)NC(=O)[C@H]1CC[C@H](CNC(=O)CN2CCN(CC(=O)O)CCN(CC(=O)O)CCN(CC(=O)O)CC2)CC1)C(=O)O)C(=O)O` [PSMA-617, reference compound]: the Ki at PSMA (ki-value for PSMA-617 from Benesova et al. (3), read-out: ki free ligands) was 2.3 ± 2.9 nM. Further, in the data set on PSMA+-cells (LNCaP), the “Specifically cell surface bound” value turned out to be 0.3 ± 0.1 % AR/10^5 cells and the Specifically internalized is 1.2 ± 0.6 % AR/10^5 cells.

As a reminder, the tissue uptake is the percentage of the injected dose found per gram of tissue. On to `CN(CC(=O)NC[C@H]1CC[C@H](C(=O)N[C@H](Cc2ccc3ccccc3c2)C(=O)NCCCC[C@@H](NC(=O)N[C@H](CCC(=O)O)C(=O)O)C(=O)O)CC1)C(=O)CN(C)C(=O)CN(C)C(=O)CN(C)C(=O)CN(C)C(=O)C(CCCCNC(=O)CN1CCN(CC(=O)O)CCN(CC(=O)O)CCN(CC(=O)O)CC1)NC(=O)CN(C)C(=O)CN(C)C(=O)CN(C)C(=O)CN(C)C(=O)CN(C)C(=O)CCNC(=O)CCCCC[N+]1=C(/C=C/C=C/C=C2/N(C)c3ccc(S(=O)(=O)[O-])cc3C2(C)C)C(C)(C)c2cc(S(=O)(=O)O)ccc21` (stereo partly shown) [^177Lu-BP-1, metal not drawn] ({X1-βAla}-[Sar][Sar][Sar][Sar][Sar][ξK](DOTA)[Sar][Sar][Sar][Sar][Sar][Trx][d2Nal]-X2), for which the tissue to tissue ratio at 1 h was found to be 40 ± 4.75 in the data set “in vivo” (Blood); 423 ± 81.3 in “in vivo” (Brain); 64.5 ± 12.8 in “in vivo” (Heart); 76.3 ± 13.1 in the data set “in vivo” (Intestine); 0.34 ± 0.04 in “in vivo” (Kidney); 27.8 ± 5.94 in “in vivo” (Liver). The tissue to tissue ratio at 1 h came to 18.2 ± 4.54 in the data set “in vivo” (Lung), 165 ± 31.4 in the data set “in vivo” (Muscle) and 8.05 ± 1.05 in “in vivo” (Spleen). In addition, the tissue uptake at 1 h turned out to be 0.16 ± 0.02 %ID/g in the data set “in vivo” (Blood); 0.02 ± 0.001 %ID/g in “in vivo” (Brain); 0.1 ± 0.004 %ID/g in “in vivo” (Heart); 0.08 ± 0.01 %ID/g in “in vivo” (Intestine); 18.9 ± 4.56 %ID/g in “in vivo” (Kidney); 0.24 ± 0.03 %ID/g in “in vivo” (Liver). In addition, the tissue uptake at 1 h is 0.38 ± 0.03 %ID/g in “in vivo” (Lung), 0.04 ± 0.004 %ID/g in “in vivo” (Muscle), 0.78 ± 0.03 %ID/g in the data set “in vivo” (Spleen) and 5.85 ± 1.16 %ID/g in “in vivo” (Tumor LNCaP).

Consider `CN(CC(=O)NC[C@H]1CC[C@H](C(=O)N[C@H](Cc2ccc3ccccc3c2)C(=O)NCCCC[C@@H](NC(=O)N[C@H](CCC(=O)O)C(=O)O)C(=O)O)CC1)C(=O)CN(C)C(=O)CN(C)C(=O)CN(C)C(=O)CN(C)C(=O)C(CCCCNC(=O)CCCCC[N+]1=C(/C=C/C=C/C=C2/N(C)c3ccc(S(=O)(=O)[O-])cc3C2(C)C)C(C)(C)c2cc(S(=O)(=O)O)ccc21)NC(=O)CN(C)C(=O)CN(C)C(=O)CN(C)C(=O)CN(C)C(=O)CN(C)C(=O)CCNC(=O)CN1CCN(CC(=O)O)CCN(CC(=O)O)CCN(CC(=O)O)CC1` (stereo partly shown) [^177Lu-BP-4, metal not drawn] ({DOTA-βAla}-[Sar][Sar][Sar][Sar][Sar][ξK](X1)[Sar][Sar][Sar][Sar][Sar][Trx][d2Nal]-X2), for which the tissue to tissue ratio at 1 h in “in vivo” (Blood) came to 25.9 ± 9.14; in the data set “in vivo” (Brain), 275 ± 63.6; in the data set “in vivo” (Heart), 48.6 ± 15.7; in the data set “in vivo” (Intestine), 49.3 ± 18.2; in the data set “in vivo” (Kidney), 0.17 ± 0.08; in the data set “in vivo” (Liver) it was 36.1 ± 6.7. Moreover, the tissue to tissue ratio at 1 h amounted to 12.1 ± 2.03 in “in vivo” (Lung), 110 ± 51.7 in “in vivo” (Muscle) and 7.83 ± 0.85 in “in vivo” (Spleen). The tissue uptake at 1 h in the data set “in vivo” (Blood) stood at 0.23 ± 0.08 %ID/g; in “in vivo” (Brain) it was 0.02 ± 0.002 %ID/g; in “in vivo” (Heart), 0.12 ± 0.02 %ID/g; in the data set “in vivo” (Intestine) it was 0.12 ± 0.04 %ID/g; in the data set “in vivo” (Kidney), 37.5 ± 12.1 %ID/g; in “in vivo” (Liver) it was 0.14 ± 0.01 %ID/g. The tissue uptake at 1 h stood at 0.4 ± 0.04 %ID/g in the data set “in vivo” (Lung), 0.06 ± 0.002 %ID/g in “in vivo” (Muscle), 0.59 ± 0.12 %ID/g in the data set “in vivo” (Spleen) and 4.3 ± 0.27 %ID/g in the data set “in vivo” (Tumor LNCaP).

In the case of `O=C([O-])CN1CCN(CC(=O)[O-])CCN(CC(=O)NCC2CCC(C(=O)N[C@@H](Cc3ccc4ccccc4c3)C(=O)NCCCC[C@H](NC(=O)N[C@@H](CCC(=O)O)C(=O)O)C(=O)O)CC2)CCN(CC(=O)[O-])CC1.[177Lu+3]` (stereo partly shown) [^177Lu-PSMA-617], the “tumor uptake in LNCaP xenograft tumors, reference compounds” value in the data set on LNCaP xenograft tumors (reference values (4), 1 h p.i. printed for 177Lu-PSMA-617) is 8.47±4.09 % ID/g. Moreover, the “kidney uptake, reference compounds” value with LNCaP xenograft tumors (reference values (4)) was 137.2±77.8 % ID/g.

For orientation: Kd means the constant that tells how readily two partners part at equilibrium. With “[Glu-urea-Lys(Ahx)]2-HBED-CC [^68Ga-PSMA-10]”, the Kd on PSMA (radioligand 68Ga-PSMA-10, reference (1)) is 3.8 nM.

As to “^68Ga-Glu-urea-Lys-2-Nal-Chx-Lys(IRDye800CW)-DOTA”, in the data set on LNCaP xenograft tumors (mouse, in vivo), the “kidney uptake, reference compounds” value was 65.64±6.60 % ID/g.
